By EC50 is commonly meant the midpoint of the concentration-response curve.

Results on one substance are retold here after publication PMC7831708.

This assay addresses recombinant human PD-1 (human) (UniProt Q15116). Nature of the assay: ELISA.
Sequence of UniProt Q15116 (Q15116 25-170): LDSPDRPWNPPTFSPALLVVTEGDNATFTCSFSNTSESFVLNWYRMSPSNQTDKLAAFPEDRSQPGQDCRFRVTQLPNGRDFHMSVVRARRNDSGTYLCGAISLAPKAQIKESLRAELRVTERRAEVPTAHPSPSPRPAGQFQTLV

On to “Recombinant cynomolgus monkey PD-L1.mFc (Fc fusion)”, for which the EC50 was 2.88 nM.
